T1: CP of tomato brown rugose fruit virus (genus Tobamovirus) (Tomato brown rugose fruit virus, UniProt A0A0S2SZX3 2-159)
T1 construct: also called ToMMV (as printed for this virus)
T1 sequence: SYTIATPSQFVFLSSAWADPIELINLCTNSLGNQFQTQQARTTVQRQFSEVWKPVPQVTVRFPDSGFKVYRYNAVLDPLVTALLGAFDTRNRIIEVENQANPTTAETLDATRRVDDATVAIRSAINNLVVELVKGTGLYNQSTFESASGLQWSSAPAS

B1: monoclonal antibody M2 (antibody, V domains shown)
VH: EVQLVESGGGLVQPKGSLKLSCAASDFTFNTHSMNWVRQAPGKVLEWIARIRSQSNNYATYYADSVKDRFTISRDDSQNMFYLQMNNLKTEDTAMYYCAGDYYGPFAYWGQGTLVAVSA
VL: DVLMTQTPLSLPVSLGDQASISCRSGQSLVHSNGNTYLHWYLQKPGQSPKLLIYKVSNRFSGVPDRFSGSGSGTDFTLKISRVEAEDLGVYFCSQSTHVPWTFGGGTKLEIK
notes: also called MAb M2
B2: monoclonal antibody M3 (antibody, V domains shown)
VH: EVILVESGGGLVKPGGSLRLSCAASGFTFSSHPLSWVRQSPDKRLEWVASISSGGRYTYYPDSVKGRLTISRDNAKNILYLHMNSLRSEDTAMYYCARRGSTATAWFAYWGQGTLVTVSA
VL: DIALTQSPASLAVSLGQRATISCKASQSVDYDGDSYMSWYQQKPGQPPKLLIYGASNLESGIPARFSGSGSGTDFTLNIHPVEEEDAATYYCQQSNEDLPTFGGGTKLEIK
notes: also called MAb M3
B3: monoclonal antibody C1 (antibody, V domains shown)
VH: EVQLQQSGAELVRPGALVKLSCKASGFNIKDYYMHWVKQRPEEGLEWIGWIDPENGNTIYDPKFQGKASITADTSSNTVRLQLSSLTSEDTAVYYCARERGAYWGQGTLVTVSA
VL: QIVLTQSPAIMSASPGEKVTMTCSASSSVSYMYWFQQKPGSSPRLLIYDTSNLASGVPVRFSGSGSGTSYSLTISRMEAEDAATFYCQQWSSYPLTFGAGTKLELK
notes: also called MAb C1
B4: monoclonal antibody N1 (antibody, V domains shown)
VH: EVQLVESGGGLVQPGGSLKLSCAASGFTFSSYGMSWVRQSPDKRLEWVATINNNGGSTYYPDSVKGRFTISRDNAKNTLYLQMSSLKSEDTAVYYCARDAAFDCWGQGTTLTVSS
VL: DIVMSQSPSSLAVSAGEKVTMSCKSSQSLLNSRTRKNYLAWYQQKPGQSPKLLIYWASTRESGVPDRFTGSGSGTDFTLTISSVQAEDLAVYYCKQSYNLFTFGSGTKLEIK
notes: also called MAb N1
B5: monoclonal antibody M1 (antibody, V domains shown)
VH: QVQLQQSGPELVRPGASVKMSCKTSGYPFSTYWMHWVKQRPGQGLEWIGMIKPSNSETSLNQKFKDKATLNVDKSSNTAYMQLNSLTSEDSGVYYCARAGDSWGQGTTLTVSS
VL: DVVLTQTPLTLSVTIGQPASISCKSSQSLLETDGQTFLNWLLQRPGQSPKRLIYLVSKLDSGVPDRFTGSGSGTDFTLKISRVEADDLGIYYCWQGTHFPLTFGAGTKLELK
notes: also called MAb M1

target: T1, CP of tomato brown rugose fruit virus …; test: dot blot; also Western blot and ELISA

**Q.** Does B1 bind?
**A.** no binding

**Q.** Does B2 bind?
**A.** no binding

**Q.** Does B3 bind?
**A.** no binding

**Q.** Does B4 bind?
**A.** no binding

**Q.** Does B5 bind?
**A.** no binding

— patent US20240239872A1 (SHANDONG AGRICULTURAL UNIVERSITY, published 2024)
